In article PMC12469269, “Investigating SMR Peptide Interactions with Breast Cancer-Associated Proteins” (International Journal of Molecular Sciences, 2025):

Assays:
[1] = target: Recombinant Human GRP75/HSPA9B/Mortalin His Protein (human) (UniProt P38646); assay: SPR
[2] = target: Recombinant Human Vimentin Protein, CF (human) (UniProt P08670); assay: SPR
Chain of Recombinant Human Vimentin Protein, CF (human) (P08670 whole entry): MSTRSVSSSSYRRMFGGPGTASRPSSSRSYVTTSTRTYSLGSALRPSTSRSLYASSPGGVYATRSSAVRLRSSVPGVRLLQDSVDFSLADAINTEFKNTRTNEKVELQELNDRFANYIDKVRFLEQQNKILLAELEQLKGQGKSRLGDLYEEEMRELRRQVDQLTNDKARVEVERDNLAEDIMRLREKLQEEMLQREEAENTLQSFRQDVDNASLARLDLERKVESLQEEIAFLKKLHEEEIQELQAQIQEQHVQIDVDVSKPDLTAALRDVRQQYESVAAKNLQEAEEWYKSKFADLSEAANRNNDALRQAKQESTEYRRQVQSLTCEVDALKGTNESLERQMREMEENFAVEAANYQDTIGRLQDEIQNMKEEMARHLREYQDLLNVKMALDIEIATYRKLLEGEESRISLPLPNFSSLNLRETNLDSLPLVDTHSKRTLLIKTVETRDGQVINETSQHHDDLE

Chain of Recombinant Human GRP75/HSPA9B/Mortalin His Protein (human) (P38646 47-679): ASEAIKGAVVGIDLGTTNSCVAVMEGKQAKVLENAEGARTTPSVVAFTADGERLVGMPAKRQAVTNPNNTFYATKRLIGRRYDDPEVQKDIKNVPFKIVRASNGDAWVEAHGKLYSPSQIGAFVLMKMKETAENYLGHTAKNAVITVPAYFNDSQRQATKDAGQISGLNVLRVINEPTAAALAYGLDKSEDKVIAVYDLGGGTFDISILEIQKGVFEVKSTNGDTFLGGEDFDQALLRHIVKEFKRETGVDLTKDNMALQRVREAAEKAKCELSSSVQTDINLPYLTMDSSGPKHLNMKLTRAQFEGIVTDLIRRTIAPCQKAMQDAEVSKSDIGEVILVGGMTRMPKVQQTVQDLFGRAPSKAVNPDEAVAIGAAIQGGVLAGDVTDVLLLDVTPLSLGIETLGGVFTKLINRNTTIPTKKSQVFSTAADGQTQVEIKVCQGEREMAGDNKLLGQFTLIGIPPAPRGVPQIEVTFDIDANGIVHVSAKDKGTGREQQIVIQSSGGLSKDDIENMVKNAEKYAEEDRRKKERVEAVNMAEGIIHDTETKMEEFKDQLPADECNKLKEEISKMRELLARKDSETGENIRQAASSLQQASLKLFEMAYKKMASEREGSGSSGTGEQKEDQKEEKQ

Substance: SMRwt peptide
- Kd [1]: 20.7 µM
- Kd [2]: 6.63 µM
